Measured values published in patent US20150344570A1 (published 2015).

T1: FcγRIIb extracellular domain with C-terminal His tag (human, UniProt P31994 43-217)
T1 construct: extracellular domain; also called FcgRIIb; 2b
T1 sequence (looked up): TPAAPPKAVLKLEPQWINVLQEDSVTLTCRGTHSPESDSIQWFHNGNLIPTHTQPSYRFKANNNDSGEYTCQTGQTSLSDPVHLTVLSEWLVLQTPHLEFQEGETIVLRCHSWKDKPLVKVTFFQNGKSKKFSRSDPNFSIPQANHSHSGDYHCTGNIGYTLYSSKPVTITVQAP


Experiments:
[1] = molecular target: T2, FcγRIa extracellular domain with C-terminal His tag (human, UniProt P12314 16-292); assay: SPR (Biacore); He/Con_1a divided by He/Con_2b (FcγRIa binding over FcγRIIb binding)
T2 construct: extracellular domain; also called FcgRI; 1a
T2 sequence (P12314 16-292): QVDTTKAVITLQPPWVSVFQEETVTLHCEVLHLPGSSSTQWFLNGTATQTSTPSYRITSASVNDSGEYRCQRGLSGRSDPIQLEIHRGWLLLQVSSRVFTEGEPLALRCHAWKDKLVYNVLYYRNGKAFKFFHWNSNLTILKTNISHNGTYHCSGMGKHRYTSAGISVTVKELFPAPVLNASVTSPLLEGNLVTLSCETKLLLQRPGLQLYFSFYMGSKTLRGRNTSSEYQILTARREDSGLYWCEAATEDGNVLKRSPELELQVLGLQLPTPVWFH
Description: (§1) The heterodimerized antibodies He Abs in which one of the H chains was introduced with an alteration were assayed for their binding activities to each activating FcγR and inhibitory FcγR according to the method described in Example 4. […] The activating FcγRs in FIGS. 26, 27, 28, and 29 are FcγRIa, FcγRIIa (R), FcγRIIa (H), and FcγRIIIa, respectively.
(§2) Analysis of interaction between objective antibody and the FcγR was carried out using Biacore T100 (GE Healthcare). HBS-EP+ (GE Healthcare) was used as the running buffer, and the measurement temperature was set to 25° C. Chips produced by immobilizing the antigen peptide by the amine coupling method to a Series S Sencor Chip CM5 (GE Healthcare), or alternatively, chips produced by allowing preliminarily biotinylated antigen peptides to interact with and immobilize onto a Series S Sensor Chip SA (certified) (GE Healthcare) were used. Antibodies of interest were captured onto an antigen peptide-immobilized chip, and allowed to interact to each FcγR diluted with running buffer. To regenerate and repeatedly use the chip, the antibodies captured on the chip were washed off by reacting 10 mM glycine-HCl, pH 1.5.

[2] = molecular target: T2, FcγRIa extracellular domain with …; assay: SPR (Biacore), antibody captured via antigen peptide, FcγR as analyte; relative binding
Description: as §1, §2

[3] = molecular target: T1, FcγRIIb extracellular domain with …; assay: as above
Description: as §1, §2

Binder	He_1a/2b (Ia/IIb) [1] [ratio]	He/Con_1a [2]	He/Con_2b [3]
GpH7-A5/GpH7-B3 variant Q295_02A/GpL16-k0 (antibody, human IgG1, kappa, Heterodimerized anti-glypican-3 IgG1; alteration only in the GpH7-B3 chain, EU numbering; also called He Ab) heavy 1: not shown heavy 2: not shown light: DIVMTQSPLSLPVTPGEPASISCQASESLVHSNRNTYLHWYLQKPGQSPQLLIYKVSNRFSGVPDRFSGSGSGTDFTLKISRVEAEDVGVYYCSQNTHVPPTFGQGTKVEIERTVAAPSVFIFPPSDEQLKSGTASVVCLLNNFYPREAKVQWKVDNALQSGNSQESVTEQDSKDSTYSLSSTLTLSKADYEKHKVYACEVTHQGLSSPVTKSFNRGEC	1.31	104 % of GpH7-A5/GpH7-B3/GpL16-k0 (=100)	79.7 % of GpH7-A5/GpH7-B3/GpL16-k0 (=100)
GpH7-A5/GpH7-B3 variant Q295_05P/GpL16-k0 (antibody, human IgG1, kappa, Heterodimerized anti-glypican-3 IgG1; alteration only in the GpH7-B3 chain, EU numbering; also called He Ab) heavy 1: not shown heavy 2: not shown light: DIVMTQSPLSLPVTPGEPASISCQASESLVHSNRNTYLHWYLQKPGQSPQLLIYKVSNRFSGVPDRFSGSGSGTDFTLKISRVEAEDVGVYYCSQNTHVPPTFGQGTKVEIERTVAAPSVFIFPPSDEQLKSGTASVVCLLNNFYPREAKVQWKVDNALQSGNSQESVTEQDSKDSTYSLSSTLTLSKADYEKHKVYACEVTHQGLSSPVTKSFNRGEC	1.53	103 % of GpH7-A5/GpH7-B3/GpL16-k0 (=100)	67.5 % of GpH7-A5/GpH7-B3/GpL16-k0 (=100)
GpH7-A5/GpH7-B3 variant Q295_03V/GpL16-k0 (antibody, human IgG1, kappa, Heterodimerized anti-glypican-3 IgG1; alteration only in the GpH7-B3 chain, EU numbering; also called He Ab) heavy 1: not shown heavy 2: not shown light: DIVMTQSPLSLPVTPGEPASISCQASESLVHSNRNTYLHWYLQKPGQSPQLLIYKVSNRFSGVPDRFSGSGSGTDFTLKISRVEAEDVGVYYCSQNTHVPPTFGQGTKVEIERTVAAPSVFIFPPSDEQLKSGTASVVCLLNNFYPREAKVQWKVDNALQSGNSQESVTEQDSKDSTYSLSSTLTLSKADYEKHKVYACEVTHQGLSSPVTKSFNRGEC	1.37	104 % of GpH7-A5/GpH7-B3/GpL16-k0 (=100)	75.7 % of GpH7-A5/GpH7-B3/GpL16-k0 (=100)
GpH7-A5/GpH7-B3 variant Q295_12R/GpL16-k0 (antibody, human IgG1, kappa, Heterodimerized anti-glypican-3 IgG1; alteration only in the GpH7-B3 chain, EU numbering; also called He Ab) heavy 1: not shown heavy 2: not shown light: DIVMTQSPLSLPVTPGEPASISCQASESLVHSNRNTYLHWYLQKPGQSPQLLIYKVSNRFSGVPDRFSGSGSGTDFTLKISRVEAEDVGVYYCSQNTHVPPTFGQGTKVEIERTVAAPSVFIFPPSDEQLKSGTASVVCLLNNFYPREAKVQWKVDNALQSGNSQESVTEQDSKDSTYSLSSTLTLSKADYEKHKVYACEVTHQGLSSPVTKSFNRGEC	1.54	100 % of GpH7-A5/GpH7-B3/GpL16-k0 (=100)	65.2 % of GpH7-A5/GpH7-B3/GpL16-k0 (=100)
GpH7-A5/GpH7-B3 variant Q295_15Y/GpL16-k0 (antibody, human IgG1, kappa, Heterodimerized anti-glypican-3 IgG1; alteration only in the GpH7-B3 chain, EU numbering; also called He Ab) heavy 1: not shown heavy 2: not shown light: DIVMTQSPLSLPVTPGEPASISCQASESLVHSNRNTYLHWYLQKPGQSPQLLIYKVSNRFSGVPDRFSGSGSGTDFTLKISRVEAEDVGVYYCSQNTHVPPTFGQGTKVEIERTVAAPSVFIFPPSDEQLKSGTASVVCLLNNFYPREAKVQWKVDNALQSGNSQESVTEQDSKDSTYSLSSTLTLSKADYEKHKVYACEVTHQGLSSPVTKSFNRGEC	1.56	102 % of GpH7-A5/GpH7-B3/GpL16-k0 (=100)	65.4 % of GpH7-A5/GpH7-B3/GpL16-k0 (=100)
GpH7-A5/GpH7-B3 variant Q295_11K/GpL16-k0 (antibody, human IgG1, kappa, Heterodimerized anti-glypican-3 IgG1; alteration only in the GpH7-B3 chain, EU numbering; also called He Ab) heavy 1: not shown heavy 2: not shown light: DIVMTQSPLSLPVTPGEPASISCQASESLVHSNRNTYLHWYLQKPGQSPQLLIYKVSNRFSGVPDRFSGSGSGTDFTLKISRVEAEDVGVYYCSQNTHVPPTFGQGTKVEIERTVAAPSVFIFPPSDEQLKSGTASVVCLLNNFYPREAKVQWKVDNALQSGNSQESVTEQDSKDSTYSLSSTLTLSKADYEKHKVYACEVTHQGLSSPVTKSFNRGEC	1.44	101 % of GpH7-A5/GpH7-B3/GpL16-k0 (=100)	70.4 % of GpH7-A5/GpH7-B3/GpL16-k0 (=100)

The remaining lines, values ahead:

He_1a/2b (Ia/IIb) [1] [ratio]	He/Con_1a [2]	He/Con_2b [3]	Binder
1.29	104 % of GpH7-A5/GpH7-B3/GpL16-k0 (=100)	80.1 % of GpH7-A5/GpH7-B3/GpL16-k0 (=100)	GpH7-A5/GpH7-B3 variant S298_01G/GpL16-k0 (antibody, human IgG1, kappa, Heterodimerized anti-glypican-3 IgG1; alteration only in the GpH7-B3 chain, EU numbering; also called He Ab) heavy 1: not shown heavy 2: not shown light: DIVMTQSPLSLPVTPGEPASISCQASESLVHSNRNTYLHWYLQKPGQSPQLLIYKVSNRFSGVPDRFSGSGSGTDFTLKISRVEAEDVGVYYCSQNTHVPPTFGQGTKVEIERTVAAPSVFIFPPSDEQLKSGTASVVCLLNNFYPREAKVQWKVDNALQSGNSQESVTEQDSKDSTYSLSSTLTLSKADYEKHKVYACEVTHQGLSSPVTKSFNRGEC
1.45	107 % of GpH7-A5/GpH7-B3/GpL16-k0 (=100)	73.4 % of GpH7-A5/GpH7-B3/GpL16-k0 (=100)	GpH7-A5/GpH7-B3 variant S298_02A/GpL16-k0 (antibody, human IgG1, kappa, Heterodimerized anti-glypican-3 IgG1; S298A (EU numbering) only in the GpH7-B3 chain; also called He Ab; GpH7-A5/GpH7-B3-15-02A/GpL16-k0) heavy 1: not shown heavy 2: not shown light: DIVMTQSPLSLPVTPGEPASISCQASESLVHSNRNTYLHWYLQKPGQSPQLLIYKVSNRFSGVPDRFSGSGSGTDFTLKISRVEAEDVGVYYCSQNTHVPPTFGQGTKVEIERTVAAPSVFIFPPSDEQLKSGTASVVCLLNNFYPREAKVQWKVDNALQSGNSQESVTEQDSKDSTYSLSSTLTLSKADYEKHKVYACEVTHQGLSSPVTKSFNRGEC
